Measured values taken from article PMC11406491, “A Plasmonic Nanoledge Array Sensor for Selective Detection of Cardiovascular Disease Biomarkers in Human Whole Blood”.

Assays:
[1] = molecular target: cardiac troponin I (cTnI) (human, UniProt P19429 2-210); assay: SPR (transmitted, EOT peak shift); PBS; LOD 0.079 ng/mL; Aptamer immobilized on gold nanoledge chip (cystamine/glutaraldehyde, PEG and glycine blocked); PBS, human serum or whole blood; 20 min incubation; room temperature (stated for stability test); pH and salt not given; conditions: protein: commercial
Chain of cardiac troponin I (cTnI) (P19429 2-210): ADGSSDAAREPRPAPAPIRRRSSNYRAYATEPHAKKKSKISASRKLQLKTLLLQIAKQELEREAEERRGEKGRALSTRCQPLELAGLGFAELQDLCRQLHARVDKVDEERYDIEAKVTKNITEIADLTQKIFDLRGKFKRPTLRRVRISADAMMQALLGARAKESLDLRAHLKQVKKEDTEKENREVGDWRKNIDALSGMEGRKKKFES

myoglobin = molecular target: T1, myoglobin (UniProt P02144 2-154); assay: SPR (transmitted, EOT peak shift); up to 125 ng/mL; minimal shift, described as poor binding; human serum (Methods) or PBS (Fig S8); Aptamer immobilized on gold nanoledge chip (cystamine/glutaraldehyde, PEG and glycine blocked); PBS, human serum or whole blood; 20 min incubation; room temperature (stated for stability test); pH and salt not given; conditions: protein: commercial
T1 sequence: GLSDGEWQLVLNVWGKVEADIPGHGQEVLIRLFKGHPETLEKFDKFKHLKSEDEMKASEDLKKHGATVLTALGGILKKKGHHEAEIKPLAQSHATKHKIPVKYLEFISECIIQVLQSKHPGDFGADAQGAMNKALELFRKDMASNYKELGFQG

CGTGCAGTACGCCAACCTTTCTCATGCGCTGCCCCTCTTA (ssDNA, 5' amino modifier C6 (5AmMC6)) [cTnI-specific aptamer]: binds [1]; no binding (myoglobin).
